From patent publication US20090252724A1 (Hoffmann-La Roche, published 2009)

Assays:
Aβ1-40 fibers [1] = target: T1, Aβ1-40 fibers (human); test: SPR (Biacore), Aβ1-40 fibers on CM5, Scatchard; high affinity (bivalent) KD; experimental equilibrium responses
T1 construct: Synthetic peptide aggregated to fibers in vitro (200 µg/ml, 10 mM Na-acetate pH 4.0, 3 days, 37 °C) and coupled to a CM5 chip; also called Aβ1-40 fibrils; fibrillar Aβ40
Experimental: (§1) Binding of ANTIBODY A to fibrillar Aβ was measured online by surface plasmon resonance (SPR), and the affinities of the molecular interactions were determined as follows: Biacore2000 and Biacore3000 instruments were used for these measurements. Aβ1-40 and Aβ1-42 fibers were generated in vitro by incubation of synthetic peptides at a concentration of 200 μg/ml in 10 mM Na-acetate buffer (pH 4.0) for three days at 37° C. Electron microscopic analysis confirmed a fibrillar structure for both peptides, Aβ1-40 showing predominantly shorter (<1 micron) and Aβ1-42 predominantly longer (>1 micron) fibers. These fibers were assumed to represent aggregated Aβ peptides in human AD brain more closely than ill-defined mixtures of amorphous aggregates and unstructured precipitates. The fibers were diluted 1:10 and directly coupled to a CM5 as described in the Instruction Manual of the manufacturer (BIAapplication Handbook, version AB, Biacore AB, Uppsala, 1998).
(§2) This coupling procedure included an activation step, during which the carboxylic acid groups on the surface were transferred into chemically reactive succinimide ester groups by contacting the surface with an aqueous mixture of N-hydroxysuccinimide and 1-ethyl-1-(3-[…])-carbodiimide hydrochloride, and an immobilization step, during which the activated surface was contacted with the fibres dissolved in 10 mM acetate buffer (pH 4.5) at 200-350 resonance units (1 resonance unit (RU) corresponds approximately to a surface loading of 1 picogram/mm²). The fiber loaded surface was then contacted with the antibody solutions in the concentration range 200 nM≧C≧0.15 nM. Typical time dependent response curves (=sensograms) monitored during the association phase (during contact with buffer) and the dissociation phase (subsequent contact with buffer) are shown in FIG. 7.
(§3) Briefly, KD values were calculated by Scatchard type analysis using concentration dependent equilibrium binding responses. These equilibrium binding constants could be obtained in two ways.

Aβ1-40 fibers [2] = target: T1, Aβ1-40 fibers; test: SPR (Biacore), Aβ1-40 fibers on CM5, Scatchard; low affinity (monovalent) KD; extrapolated equilibrium responses; stdev 8.40
Experimental: (§4) Binding of ANTIBODY A to fibrillar Aβ was measured online by surface plasmon resonance (SPR), and the affinities of the molecular interactions were determined as follows: Biacore2000 and Biacore3000 instruments were used for these measurements. Aβ1-40 and Aβ1-42 fibers were generated in vitro by incubation of synthetic peptides at a concentration of 200 μg/ml in 10 mM Na-acetate buffer (pH 4.0) for three days at 37° C. Electron microscopic analysis confirmed a fibrillar structure for both peptides, Aβ1-40 showing predominantly shorter (<1 micron) and Aβ1-42 predominantly longer (>1 micron) fibers. […]
as §2, with “The fiber loaded surface was then contacted with the antibody solutions in the concentration range 200 nM≧C≧0.15 nM.” left out, “7. […]” for “7.”

Aβ1-40 fibers [3] = target: T1, Aβ1-40 fibers; test: SPR (Biacore), Aβ1-40 fibers on CM5, Scatchard; high affinity (bivalent) KD; extrapolated equilibrium responses; stdev 0.10
Experimental: as §4
as §2, with “The fiber loaded surface was then contacted with the antibody solutions in the concentration range 200 nM≧C≧0.15 nM.” left out, “7. […]” for “7.”

Aβ1-40 fibers [4] = target: T1, Aβ1-40 fibers; test: SPR (Biacore), Aβ1-40 fibers on CM5, Scatchard; low affinity (monovalent) KD; experimental equilibrium responses
Experimental: as §1, §2, §3

Aβ1-40 fibers [5] = target: T1, Aβ1-40 fibers; test: SPR (Biacore), Aβ1-40 fibers on CM5, Scatchard; low affinity (monovalent) KD; extrapolated equilibrium responses; stdev 0.15
Experimental: as §4
as §2, with “The fiber loaded surface was then contacted with the antibody solutions in the concentration range 200 nM≧C≧0.15 nM.” left out, “7. […]” for “7.”

Aβ1-40 fibers [6] = target: T1, Aβ1-40 fibers; test: SPR (Biacore), Aβ1-40 fibers on CM5, Scatchard; high affinity (bivalent) KD; extrapolated equilibrium responses; stdev 0.03
Experimental: as §4
as §2, with “The fiber loaded surface was then contacted with the antibody solutions in the concentration range 200 nM≧C≧0.15 nM.” left out, “7. […]” for “7.”

Aβ1-40 fibers [7] = target: T1, Aβ1-40 fibers; test: SPR (Biacore), Aβ1-40 fibers on CM5, Scatchard; low affinity (monovalent) KD; extrapolated equilibrium responses; stdev 22.33
Experimental: as §4
as §2, with “The fiber loaded surface was then contacted with the antibody solutions in the concentration range 200 nM≧C≧0.15 nM.” left out, “7. […]” for “7.”

Aβ1-40 fibers [8] = target: T1, Aβ1-40 fibers; test: SPR (Biacore), Aβ1-40 fibers on CM5, Scatchard; high affinity (bivalent) KD; extrapolated equilibrium responses; stdev 0.02
Experimental: as §4
as §2, with “The fiber loaded surface was then contacted with the antibody solutions in the concentration range 200 nM≧C≧0.15 nM.” left out, “7. […]” for “7.”

Kd (Aβ1-40 fibers [1]) [nM] | Kd (Aβ1-40 fibers [2]) [nM] | Kd (Aβ1-40 fibers [3]) [nM] | Kd (Aβ1-40 fibers [4]) [nM] | Kd (Aβ1-40 fibers [5]) [nM] | Kd (Aβ1-40 fibers [6]) [nM] | Kd (Aβ1-40 fibers [7]) [nM] | Kd (Aβ1-40 fibers [8]) [nM] | Binder
0.41 | 27.2 | 0.49 | 21 |  |  |  |  | ANTIBODY A COMPOSITION (mixture of mono- and double-glycosylated ANTIBODY A) (antibody, human IgG1, kappa, V domains shown, N-linked glycan at Asn52 (VH CDR2) on one or on both heavy chains (mixture of the two isoforms); N-linked glycan at Asn306 (Fc), also called Mixture of mono- and double-glycosylated ANTIBODY A isoforms (1:1)) VH: QVELVESGGGLVQPGGSLRLSCAASGFTFSSYAMSWVRQAPGKGLEWVSAINASGTRTYYADSVKGRFTISRDNSKNTLYLQMNSLRAEDTAVYYCARGKGNTHKPYGYVRYFDVWGQGTLVTVSS VL: DIVLTQSPATLSLSPGERATLSCRASQSVSSSYLAWYQQKPGQAPRLLIYGASSRATGVPARFSGSGSGTDFTLTISSLEPEDFATYYCLQIYNMPITFGQGTKVEIKR
0.42 |  |  | 2.82 | 1.99 | 0.19 |  |  | non-glycosylated ANTIBODY A (antibody, human IgG1, kappa, V domains shown, Asn52 not glycosylated; N-linked glycan at Asn306 (Fc), Human IgG1 kappa, made in CHO cells; no glycan in the variable region; also called non-glycosylated ANTIBODY A isoform; non-glycosylated isoform) VH: QVELVESGGGLVQPGGSLRLSCAASGFTFSSYAMSWVRQAPGKGLEWVSAINASGTRTYYADSVKGRFTISRDNSKNTLYLQMNSLRAEDTAVYYCARGKGNTHKPYGYVRYFDVWGQGTLVTVSS VL: DIVLTQSPATLSLSPGERATLSCRASQSVSSSYLAWYQQKPGQAPRLLIYGASSRATGVPARFSGSGSGTDFTLTISSLEPEDFATYYCLQIYNMPITFGQGTKVEIKR
1.54 |  |  | 29 |  |  | 18.5 | 1.43 | double-glycosylated ANTIBODY A (antibody, human IgG1, kappa, V domains shown, N-linked glycan at Asn52 (VH CDR2) on both heavy chains; N-linked glycan at Asn306 (Fc), Human IgG1 kappa, made in CHO cells, separated by cation exchange chromatography; also called double-glycosylated ANTIBODY A isoform; double-glycosylated isoform) VH: QVELVESGGGLVQPGGSLRLSCAASGFTFSSYAMSWVRQAPGKGLEWVSAINASGTRTYYADSVKGRFTISRDNSKNTLYLQMNSLRAEDTAVYYCARGKGNTHKPYGYVRYFDVWGQGTLVTVSS VL: DIVLTQSPATLSLSPGERATLSCRASQSVSSSYLAWYQQKPGQAPRLLIYGASSRATGVPARFSGSGSGTDFTLTISSLEPEDFATYYCLQIYNMPITFGQGTKVEIKR
